Test results: patent US20140206609A1 (Sanofi, published 2014)
*1 amine or outer side, *2 acyl side, *3 side chain or, on linkers, in order; H or OH if unused. Where no end group is shown, it is not given here. Side-chain parts run from the residue outwards. [ ]: non-standard residue; d: D form. The star is where a group is joined. γGlu = O=C(O)[C@H](CCC(=O)[*:2])N[*:1]; Stearoyl = CCCCCCCCCCCCCCCCCC(=O)*; Palmitoyl = CCCCCCCCCCCCCCCC(=O)*; Aib = CC(C)(N)C(=O)O

T1: human GIP receptor (human, UniProt P48546 22-466)
T1 sequence (looked up): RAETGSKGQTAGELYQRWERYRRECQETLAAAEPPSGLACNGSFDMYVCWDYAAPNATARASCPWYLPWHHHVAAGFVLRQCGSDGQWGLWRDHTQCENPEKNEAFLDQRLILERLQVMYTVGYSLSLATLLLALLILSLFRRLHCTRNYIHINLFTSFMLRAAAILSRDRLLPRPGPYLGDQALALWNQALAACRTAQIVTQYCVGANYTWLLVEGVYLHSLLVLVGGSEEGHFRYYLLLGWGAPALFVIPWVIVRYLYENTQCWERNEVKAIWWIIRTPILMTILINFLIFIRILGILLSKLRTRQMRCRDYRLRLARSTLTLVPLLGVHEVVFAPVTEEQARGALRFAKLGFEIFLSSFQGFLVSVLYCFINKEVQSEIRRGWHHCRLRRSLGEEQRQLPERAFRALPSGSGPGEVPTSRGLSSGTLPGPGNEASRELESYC

B1: SEQ ID NO: 14 (peptide)
peptide: Y[Aib]EGTFTSDLSIQK([γGlu-Stearoyl])EKRAAQEFIEWLKAGGPSSGAPPPS-NH2
modifications: N-terminus assumed
SMILES: CCCCCCCCCCCCCCCCCC(=O)N[C@@H](CCC(=O)NCCCC[C@H](NC(=O)[C@H](CCC(N)=O)NC(=O)[C@@H](NC(=O)[C@H](CO)NC(=O)[C@H](CC(C)C)NC(=O)[C@H](CC(=O)O)NC(=O)[C@H](CO)NC(=O)[C@@H](NC(=O)[C@H](Cc1ccccc1)NC(=O)[C@@H](NC(=O)CNC(=O)[C@H](CCC(=O)O)NC(=O)C(C)(C)NC(=O)[C@@H](N)Cc1ccc(O)cc1)[C@@H](C)O)[C@@H](C)O)[C@@H](C)CC)C(=O)N[C@@H](CCC(=O)O)C(=O)N[C@@H](CCCCN)C(=O)N[C@@H](CCCNC(=N)N)C(=O)N[C@@H](C)C(=O)N[C@@H](C)C(=O)N[C@@H](CCC(N)=O)C(=O)N[C@@H](CCC(=O)O)C(=O)N[C@@H](Cc1ccccc1)C(=O)N[C@H](C(=O)N[C@@H](CCC(=O)O)C(=O)N[C@@H](Cc1c[nH]c2ccccc12)C(=O)N[C@@H](CC(C)C)C(=O)N[C@@H](CCCCN)C(=O)N[C@@H](C)C(=O)NCC(=O)NCC(=O)N1CCC[C@H]1C(=O)N[C@@H](CO)C(=O)N[C@@H](CO)C(=O)NCC(=O)N[C@@H](C)C(=O)N1CCC[C@H]1C(=O)N1CCC[C@H]1C(=O)N1CCC[C@H]1C(=O)N[C@@H](CO)C(N)=O)[C@@H](C)CC)C(=O)O
B2: SEQ ID NO: 13 (peptide)
peptide: Y[Aib]QGTFTSDLSIQK([γGlu-Palmitoyl])DSRAAQDFIEWLKNGGPSSGAPPPS-NH2
modifications: N-terminus assumed
SMILES: CCCCCCCCCCCCCCCC(=O)N[C@@H](CCC(=O)NCCCC[C@H](NC(=O)[C@H](CCC(N)=O)NC(=O)[C@@H](NC(=O)[C@H](CO)NC(=O)[C@H](CC(C)C)NC(=O)[C@H](CC(=O)O)NC(=O)[C@H](CO)NC(=O)[C@@H](NC(=O)[C@H](Cc1ccccc1)NC(=O)[C@@H](NC(=O)CNC(=O)[C@H](CCC(N)=O)NC(=O)C(C)(C)NC(=O)[C@@H](N)Cc1ccc(O)cc1)[C@@H](C)O)[C@@H](C)O)[C@@H](C)CC)C(=O)N[C@@H](CC(=O)O)C(=O)N[C@@H](CO)C(=O)N[C@@H](CCCNC(=N)N)C(=O)N[C@@H](C)C(=O)N[C@@H](C)C(=O)N[C@@H](CCC(N)=O)C(=O)N[C@@H](CC(=O)O)C(=O)N[C@@H](Cc1ccccc1)C(=O)N[C@H](C(=O)N[C@@H](CCC(=O)O)C(=O)N[C@@H](Cc1c[nH]c2ccccc12)C(=O)N[C@@H](CC(C)C)C(=O)N[C@@H](CCCCN)C(=O)N[C@@H](CC(N)=O)C(=O)NCC(=O)NCC(=O)N1CCC[C@H]1C(=O)N[C@@H](CO)C(=O)N[C@@H](CO)C(=O)NCC(=O)N[C@@H](C)C(=O)N1CCC[C@H]1C(=O)N1CCC[C@H]1C(=O)N1CCC[C@H]1C(=O)N[C@@H](CO)C(N)=O)[C@@H](C)CC)C(=O)O
B3: SEQ ID NO: 16 (peptide)
peptide: Y[Aib]EGTFTSDLSIQK([γGlu-γGlu-Stearoyl])EKRAA[Aib]EFIEWLKNTGPSSGAPPPS-NH2
modifications: N-terminus assumed
SMILES: CCCCCCCCCCCCCCCCCC(=O)N[C@@H](CCC(=O)N[C@@H](CCC(=O)NCCCC[C@H](NC(=O)[C@H](CCC(N)=O)NC(=O)[C@@H](NC(=O)[C@H](CO)NC(=O)[C@H](CC(C)C)NC(=O)[C@H](CC(=O)O)NC(=O)[C@H](CO)NC(=O)[C@@H](NC(=O)[C@H](Cc1ccccc1)NC(=O)[C@@H](NC(=O)CNC(=O)[C@H](CCC(=O)O)NC(=O)C(C)(C)NC(=O)[C@@H](N)Cc1ccc(O)cc1)[C@@H](C)O)[C@@H](C)O)[C@@H](C)CC)C(=O)N[C@@H](CCC(=O)O)C(=O)N[C@@H](CCCCN)C(=O)N[C@@H](CCCNC(=N)N)C(=O)N[C@@H](C)C(=O)N[C@@H](C)C(=O)NC(C)(C)C(=O)N[C@@H](CCC(=O)O)C(=O)N[C@@H](Cc1ccccc1)C(=O)N[C@H](C(=O)N[C@@H](CCC(=O)O)C(=O)N[C@@H](Cc1c[nH]c2ccccc12)C(=O)N[C@@H](CC(C)C)C(=O)N[C@@H](CCCCN)C(=O)N[C@@H](CC(N)=O)C(=O)N[C@H](C(=O)NCC(=O)N1CCC[C@H]1C(=O)N[C@@H](CO)C(=O)N[C@@H](CO)C(=O)NCC(=O)N[C@@H](C)C(=O)N1CCC[C@H]1C(=O)N1CCC[C@H]1C(=O)N1CCC[C@H]1C(=O)N[C@@H](CO)C(N)=O)[C@@H](C)O)[C@@H](C)CC)C(=O)O)C(=O)O
B4: SEQ ID NO: 11 (peptide)
peptide: Y[Aib]EGTFTSDLSIQK([γGlu-Palmitoyl])DKRAA[Aib]DFIEWLKAGGPSSGAPPPS-NH2
modifications: N-terminus assumed
SMILES: CCCCCCCCCCCCCCCC(=O)N[C@@H](CCC(=O)NCCCC[C@H](NC(=O)[C@H](CCC(N)=O)NC(=O)[C@@H](NC(=O)[C@H](CO)NC(=O)[C@H](CC(C)C)NC(=O)[C@H](CC(=O)O)NC(=O)[C@H](CO)NC(=O)[C@@H](NC(=O)[C@H](Cc1ccccc1)NC(=O)[C@@H](NC(=O)CNC(=O)[C@H](CCC(=O)O)NC(=O)C(C)(C)NC(=O)[C@@H](N)Cc1ccc(O)cc1)[C@@H](C)O)[C@@H](C)O)[C@@H](C)CC)C(=O)N[C@@H](CC(=O)O)C(=O)N[C@@H](CCCCN)C(=O)N[C@@H](CCCNC(=N)N)C(=O)N[C@@H](C)C(=O)N[C@@H](C)C(=O)NC(C)(C)C(=O)N[C@@H](CC(=O)O)C(=O)N[C@@H](Cc1ccccc1)C(=O)N[C@H](C(=O)N[C@@H](CCC(=O)O)C(=O)N[C@@H](Cc1c[nH]c2ccccc12)C(=O)N[C@@H](CC(C)C)C(=O)N[C@@H](CCCCN)C(=O)N[C@@H](C)C(=O)NCC(=O)NCC(=O)N1CCC[C@H]1C(=O)N[C@@H](CO)C(=O)N[C@@H](CO)C(=O)NCC(=O)N[C@@H](C)C(=O)N1CCC[C@H]1C(=O)N1CCC[C@H]1C(=O)N1CCC[C@H]1C(=O)N[C@@H](CO)C(N)=O)[C@@H](C)CC)C(=O)O
B5: SEQ ID NO: 12 (peptide)
peptide: Y[Aib]EGTFTSDLSIQK([γGlu-Palmitoyl])DKRAAQDFIEWLKNGGPSSGAPPPS-NH2
modifications: N-terminus assumed
SMILES: CCCCCCCCCCCCCCCC(=O)N[C@@H](CCC(=O)NCCCC[C@H](NC(=O)[C@H](CCC(N)=O)NC(=O)[C@@H](NC(=O)[C@H](CO)NC(=O)[C@H](CC(C)C)NC(=O)[C@H](CC(=O)O)NC(=O)[C@H](CO)NC(=O)[C@@H](NC(=O)[C@H](Cc1ccccc1)NC(=O)[C@@H](NC(=O)CNC(=O)[C@H](CCC(=O)O)NC(=O)C(C)(C)NC(=O)[C@@H](N)Cc1ccc(O)cc1)[C@@H](C)O)[C@@H](C)O)[C@@H](C)CC)C(=O)N[C@@H](CC(=O)O)C(=O)N[C@@H](CCCCN)C(=O)N[C@@H](CCCNC(=N)N)C(=O)N[C@@H](C)C(=O)N[C@@H](C)C(=O)N[C@@H](CCC(N)=O)C(=O)N[C@@H](CC(=O)O)C(=O)N[C@@H](Cc1ccccc1)C(=O)N[C@H](C(=O)N[C@@H](CCC(=O)O)C(=O)N[C@@H](Cc1c[nH]c2ccccc12)C(=O)N[C@@H](CC(C)C)C(=O)N[C@@H](CCCCN)C(=O)N[C@@H](CC(N)=O)C(=O)NCC(=O)NCC(=O)N1CCC[C@H]1C(=O)N[C@@H](CO)C(=O)N[C@@H](CO)C(=O)NCC(=O)N[C@@H](C)C(=O)N1CCC[C@H]1C(=O)N1CCC[C@H]1C(=O)N1CCC[C@H]1C(=O)N[C@@H](CO)C(N)=O)[C@@H](C)CC)C(=O)O

molecular target: human GLP-1 receptor (human, UniProt P43220 24-463); assay: cell-based or functional assay

In order of rising “EC50 hGLP-1 R [pM]” value:
1. B3  4 pM
2. B1  4.3 pM
3. B2  7.3 pM
4. B4  11.5 pM
5. B5  12.7 pM

molecular target: T1, human GIP receptor; assay: cell-based or functional assay

In order of falling “EC50 hGIP R [pM]” value:
1. B2  71 pM
2. B5  8.9 pM
3. B3  5.1 pM
4. B1  4.4 pM
5. B4  3.2 pM

molecular target: human glucagon receptor (human, UniProt P47871 26-477); assay: cell-based or functional assay
Sequence (P47871 26-477): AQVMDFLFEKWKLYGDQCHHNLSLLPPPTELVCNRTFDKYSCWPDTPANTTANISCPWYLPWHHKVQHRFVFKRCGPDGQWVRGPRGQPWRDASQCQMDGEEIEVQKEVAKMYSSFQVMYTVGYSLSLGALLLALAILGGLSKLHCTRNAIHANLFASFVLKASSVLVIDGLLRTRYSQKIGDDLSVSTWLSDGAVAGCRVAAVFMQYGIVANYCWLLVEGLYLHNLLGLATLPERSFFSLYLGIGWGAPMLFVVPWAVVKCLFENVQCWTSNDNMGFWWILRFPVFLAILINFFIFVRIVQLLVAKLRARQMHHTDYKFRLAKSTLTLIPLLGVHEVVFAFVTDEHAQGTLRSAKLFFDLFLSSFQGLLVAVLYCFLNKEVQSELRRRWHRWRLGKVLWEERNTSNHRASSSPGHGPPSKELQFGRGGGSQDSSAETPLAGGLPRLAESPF

In order of rising “EC50 hGLUC R [pM]” value:
1. B2  31.3 pM
2. B5  1890 pM
3. B3  2890 pM
4. B1  3760 pM
5. B4  7220 pM
